Measured values reported in patent publication US20140087995A1 (published 2014).
Numbered stars: 1 amine (or outer) side, 2 acyl side, 3 side chain; on linkers, the order of the positions; unused ones are H or OH. Bridge positions count the residues as written; N and C are the ends. Side chains are listed from the residue outwards. Ends that are not written are not given here. * marks the point of attachment. C20 diacid = O=C(O)CCCCCCCCCCCCCCCCCCC(=O)*; γGlu = O=C(O)[C@H](CCC(=O)[*:2])N[*:1]

T1: human amylin receptor (amylin 3(a) receptor: human calcitonin receptor plus RAMP-3) (human, UniProt P30988 25-474; O60896 24-148)
T1 construct: whole, on cells; functional assay (II)a used the whole cells; also called hAmylin-R; hAmylinR
T1 sequence (looked up) 1: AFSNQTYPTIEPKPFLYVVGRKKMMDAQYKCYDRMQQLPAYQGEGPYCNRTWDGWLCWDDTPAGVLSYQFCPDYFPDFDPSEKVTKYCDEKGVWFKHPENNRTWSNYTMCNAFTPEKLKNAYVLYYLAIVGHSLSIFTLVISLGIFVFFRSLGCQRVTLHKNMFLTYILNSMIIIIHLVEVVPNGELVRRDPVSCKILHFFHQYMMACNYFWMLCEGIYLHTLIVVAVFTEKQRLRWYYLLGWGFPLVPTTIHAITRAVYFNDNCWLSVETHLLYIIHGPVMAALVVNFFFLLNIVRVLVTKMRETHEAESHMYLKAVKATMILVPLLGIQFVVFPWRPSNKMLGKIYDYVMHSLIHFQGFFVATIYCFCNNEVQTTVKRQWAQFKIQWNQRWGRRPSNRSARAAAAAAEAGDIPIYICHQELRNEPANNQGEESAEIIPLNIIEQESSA
T1 sequence (looked up) 2: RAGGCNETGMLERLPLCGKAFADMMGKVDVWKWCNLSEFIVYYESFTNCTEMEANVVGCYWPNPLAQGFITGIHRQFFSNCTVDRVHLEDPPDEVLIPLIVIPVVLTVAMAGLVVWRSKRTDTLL

T2: human calcitonin receptor (human, UniProt P30988 25-474)
T2 sequence (looked up): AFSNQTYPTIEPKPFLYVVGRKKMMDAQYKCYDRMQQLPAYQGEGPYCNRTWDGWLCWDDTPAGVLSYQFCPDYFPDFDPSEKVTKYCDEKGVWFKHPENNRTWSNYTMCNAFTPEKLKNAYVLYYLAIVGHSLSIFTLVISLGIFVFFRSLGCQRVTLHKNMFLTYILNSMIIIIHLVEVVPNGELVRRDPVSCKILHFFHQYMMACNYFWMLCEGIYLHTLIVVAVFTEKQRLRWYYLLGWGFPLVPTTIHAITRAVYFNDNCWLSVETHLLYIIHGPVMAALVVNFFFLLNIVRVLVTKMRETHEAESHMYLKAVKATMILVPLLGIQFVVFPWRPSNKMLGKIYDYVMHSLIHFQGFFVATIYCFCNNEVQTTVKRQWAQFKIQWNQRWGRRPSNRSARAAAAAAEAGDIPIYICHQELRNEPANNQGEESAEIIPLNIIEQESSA

T3: rat calcitonin receptor (rat, UniProt P32214 25-516)
T3 construct: whole, on cells; Cell membranes of transiently transfected BHK tk'ts 13 cells (Assay VIII); also called rCTR; rCT
T3 sequence (looked up): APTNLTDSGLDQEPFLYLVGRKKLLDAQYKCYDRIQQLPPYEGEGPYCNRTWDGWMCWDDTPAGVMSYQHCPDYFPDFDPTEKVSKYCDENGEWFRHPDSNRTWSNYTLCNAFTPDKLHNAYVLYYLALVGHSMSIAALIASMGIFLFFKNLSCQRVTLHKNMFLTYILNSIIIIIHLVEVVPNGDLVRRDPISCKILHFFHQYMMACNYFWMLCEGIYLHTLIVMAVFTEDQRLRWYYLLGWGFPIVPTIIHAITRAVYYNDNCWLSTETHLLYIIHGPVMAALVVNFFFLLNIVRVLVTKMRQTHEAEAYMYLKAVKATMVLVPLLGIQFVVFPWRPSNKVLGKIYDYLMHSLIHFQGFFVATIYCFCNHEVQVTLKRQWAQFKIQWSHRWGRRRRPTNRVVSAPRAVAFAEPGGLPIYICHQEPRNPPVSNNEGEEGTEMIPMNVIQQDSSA

T4: rat amylin receptor (rat calcitonin receptor + rat RAMP 3) (rat, UniProt P32214 25-516; Q9JJ73 23-147)
T4 construct: whole, on cells; Cell membranes of transiently transfected BHK tk'ts 13 cells (Assay VI); also called rAmylin-R; rat amylin 3(a) receptor
T4 sequence (looked up) 1: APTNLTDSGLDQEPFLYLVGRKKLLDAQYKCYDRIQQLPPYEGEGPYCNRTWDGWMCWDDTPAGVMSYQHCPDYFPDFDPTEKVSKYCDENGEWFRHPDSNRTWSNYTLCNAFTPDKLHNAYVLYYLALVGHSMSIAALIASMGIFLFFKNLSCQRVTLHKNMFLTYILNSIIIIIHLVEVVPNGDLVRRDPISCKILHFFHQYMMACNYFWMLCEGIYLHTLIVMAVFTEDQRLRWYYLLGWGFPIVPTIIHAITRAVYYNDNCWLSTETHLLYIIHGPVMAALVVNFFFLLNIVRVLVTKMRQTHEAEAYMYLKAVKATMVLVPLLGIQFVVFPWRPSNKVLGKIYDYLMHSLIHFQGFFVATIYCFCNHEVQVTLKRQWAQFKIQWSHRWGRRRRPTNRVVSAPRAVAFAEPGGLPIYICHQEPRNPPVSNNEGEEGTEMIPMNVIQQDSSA
T4 sequence (looked up) 2: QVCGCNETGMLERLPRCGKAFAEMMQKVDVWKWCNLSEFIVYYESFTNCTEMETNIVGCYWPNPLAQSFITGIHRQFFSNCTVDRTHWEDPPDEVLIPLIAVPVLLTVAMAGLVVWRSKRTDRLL


How the values were obtained:
[1] = target: T1, human amylin receptor (amylin 3(a) …); experiment: SPA competition binding, displacement of 125I-rat amylin, membranes of BHK amylin 3(a)/CRE-luc cells
Description: The binding assay was performed using scintillation proximity assay (SPA) beads (RPNQ0001) from PerkinElmer and cell membranes from the Amylin 3(a)/CRE-luc cells (as described in Assay (II)) were used. Membranes were prepared in the following way; the cells were rinsed with PBS and incubated with Versene for approximately 5 min before harvesting. The cells were flushed with PBS and the cell-suspension was centrifuged for 5 min at 1000 rpm. Cells were homogenized (ultrathurrax) in a buffer containing 20 mM Na-HEPES and 10 mM EDTA (pH 7.4) and centrifuged at 20.000 rpm for 15 min. The resulting pellet was resuspended, homogenized and centrifuged (20.000 rpm, 15 min) in a buffer containing 20 mM Na-HEPES and 0.1 mM EDTA (pH 7.4, buffer 2). The resulting pellet was resuspended in buffer 2 and protein concentration was measured (BCA protein Assay, Pierce). The homogenate was kept cold during the whole procedure. The membranes were kept at −80° C. until use. The assay was performed in a 384 well Optiplate (PerkinElmer) in a total volume of 40 ul. Membranes were mixed with SPA beads. Final concentration of membranes 35 ng/μL final and SPA beads was 0.05 mg/well. Test-compounds were dissolved in DMSO and further diluted in assay buffer (50 mM Hepes, pH 7.4, 1 mM CaCl2, 5 mM MgCl₂, 0.1% OA and 0.02% Tween20). […] The final mixture was incubated with shaking at 400 rpm for 120 min at 25° C. prior to centrifugation (1500 rpm, 10 min). Samples were analyzed on TopCounter™ (Packard). The IC₅₀ was calculated using (one site binding competition analysis) GraphPad Prism5 as a measure of receptor affinity.

[2] = target: T2, human calcitonin receptor; experiment: cell-based or functional assay
[3] = target: T1, human amylin receptor (amylin 3(a) …); experiment: cell-based or functional assay
rat calcitonin receptor [4] = target: T3, rat calcitonin receptor; experiment: SPA competition vs 125I-calcitonin, membranes with rat CTR (Assay VIII)
rat calcitonin receptor [5] = target: T3, rat calcitonin receptor; experiment: ratio IC50 rat calcitonin receptor / IC50 rat amylin receptor
[6] = target: T4, rat amylin receptor (rat calcitonin …); experiment: SPA competition vs 125I-rat amylin, membranes with rat CTR + rat RAMP3 (Assay VI)

Row | Binder | IC50 [1] | hCTR funct. EC50 (pM) [2] | Ratio hCT/hAmylin funct. [3] | hAmylin-R funct. EC50 (pM) [3] | IC50 (rat calcitonin receptor [4]) | Ratio rCT/rAmylin binding (rat calcitonin receptor [5]) | IC50 [6]
1 | {C20 diacid-γGlu}-KCNTATCATQRLANFLRHSSPNFGAIPSSTPVGSETY-NH2 (disulfide 2-7; SMILES CC[C@H](C)[C@H](NC(=O)[C@H](C)NC(=O)CNC(=O)[C@H](Cc1ccccc1)NC(=O)[C@H](CC(N)=O)NC(=O)[C@@H]1CCCN1C(=O)[C@H](CO)NC(=O)[C@H](CO)NC(=O)[C@H](Cc1c[nH]cn1)NC(=O)[C@H](CCCNC(=N)N)NC(=O)[C@H](CC(C)C)NC(=O)[C@H](Cc1ccccc1)NC(=O)[C@H](CC(N)=O)NC(=O)[C@H](C)NC(=O)[C@H](CC(C)C)NC(=O)[C@H](CCCNC(=N)N)NC(=O)[C@H](CCC(N)=O)NC(=O)[C@@H](NC(=O)[C@H](C)NC(=O)[C@@H]1CSSC[C@H](NC(=O)[C@H](CCCCN)NC(=O)CC[C@H](NC(=O)CCCCCCCCCCCCCCCCCCC(=O)O)C(=O)O)C(=O)N[C@@H](CC(N)=O)C(=O)N[C@@H]([C@@H](C)O)C(=O)N[C@@H](C)C(=O)N[C@@H]([C@@H](C)O)C(=O)N1)[C@@H](C)O)C(=O)N1CCC[C@H]1C(=O)N[C@@H](CO)C(=O)N[C@@H](CO)C(=O)N[C@H](C(=O)N1CCC[C@H]1C(=O)N[C@H](C(=O)NCC(=O)N[C@@H](CO)C(=O)N[C@@H](CCC(=O)O)C(=O)N[C@H](C(=O)N[C@@H](Cc1ccc(O)cc1)C(N)=O)[C@@H](C)O)C(C)C)[C@@H](C)O, also called compound 28) | 0.61 nM | 2030 pM | 9.2 | 220 pM | – | – | –
2 | {C20 diacid-γGlu}-KCNTATCATQRLANFLRHSSPNFGAIPSSTNVGPETY-NH2 (disulfide 2-7; SMILES CC[C@H](C)[C@H](NC(=O)[C@H](C)NC(=O)CNC(=O)[C@H](Cc1ccccc1)NC(=O)[C@H](CC(N)=O)NC(=O)[C@@H]1CCCN1C(=O)[C@H](CO)NC(=O)[C@H](CO)NC(=O)[C@H](Cc1c[nH]cn1)NC(=O)[C@H](CCCNC(=N)N)NC(=O)[C@H](CC(C)C)NC(=O)[C@H](Cc1ccccc1)NC(=O)[C@H](CC(N)=O)NC(=O)[C@H](C)NC(=O)[C@H](CC(C)C)NC(=O)[C@H](CCCNC(=N)N)NC(=O)[C@H](CCC(N)=O)NC(=O)[C@@H](NC(=O)[C@H](C)NC(=O)[C@@H]1CSSC[C@H](NC(=O)[C@H](CCCCN)NC(=O)CC[C@H](NC(=O)CCCCCCCCCCCCCCCCCCC(=O)O)C(=O)O)C(=O)N[C@@H](CC(N)=O)C(=O)N[C@@H]([C@@H](C)O)C(=O)N[C@@H](C)C(=O)N[C@@H]([C@@H](C)O)C(=O)N1)[C@@H](C)O)C(=O)N1CCC[C@H]1C(=O)N[C@@H](CO)C(=O)N[C@@H](CO)C(=O)N[C@H](C(=O)N[C@@H](CC(N)=O)C(=O)N[C@H](C(=O)NCC(=O)N1CCC[C@H]1C(=O)N[C@@H](CCC(=O)O)C(=O)N[C@H](C(=O)N[C@@H](Cc1ccc(O)cc1)C(N)=O)[C@@H](C)O)C(C)C)[C@@H](C)O, also called compound 29) | 0.577 nM | 857 pM | 8.7 | 99 pM | – | – | –
3 | K([γGlu-C20 diacid])CNTATCATQRLAHFLRHSSPNFGAIPSSTPVGSNTY-NH2 (disulfide 2-7; N-terminus assumed; SMILES CC[C@H](C)[C@H](NC(=O)[C@H](C)NC(=O)CNC(=O)[C@H](Cc1ccccc1)NC(=O)[C@H](CC(N)=O)NC(=O)[C@@H]1CCCN1C(=O)[C@H](CO)NC(=O)[C@H](CO)NC(=O)[C@H](Cc1c[nH]cn1)NC(=O)[C@H](CCCNC(=N)N)NC(=O)[C@H](CC(C)C)NC(=O)[C@H](Cc1ccccc1)NC(=O)[C@H](Cc1c[nH]cn1)NC(=O)[C@H](C)NC(=O)[C@H](CC(C)C)NC(=O)[C@H](CCCNC(=N)N)NC(=O)[C@H](CCC(N)=O)NC(=O)[C@@H](NC(=O)[C@H](C)NC(=O)[C@@H]1CSSC[C@H](NC(=O)[C@@H](N)CCCCNC(=O)CC[C@H](NC(=O)CCCCCCCCCCCCCCCCCCC(=O)O)C(=O)O)C(=O)N[C@@H](CC(N)=O)C(=O)N[C@@H]([C@@H](C)O)C(=O)N[C@@H](C)C(=O)N[C@@H]([C@@H](C)O)C(=O)N1)[C@@H](C)O)C(=O)N1CCC[C@H]1C(=O)N[C@@H](CO)C(=O)N[C@@H](CO)C(=O)N[C@H](C(=O)N1CCC[C@H]1C(=O)N[C@H](C(=O)NCC(=O)N[C@@H](CO)C(=O)N[C@@H](CC(N)=O)C(=O)N[C@H](C(=O)N[C@@H](Cc1ccc(O)cc1)C(N)=O)[C@@H](C)O)C(C)C)[C@@H](C)O, Acylated analogue of human amylin; also called compound 62) | – | – | – | – | 18 nM | 42.8 | 0.42 nM
